± gives the uncertainty stated by the source.
B1: Intersectin-2, residues 1129 to 1183; numbered along this chain, Q9NZM3 (parent)
chain: VCQVIAMYDYAANNEDELSFSKGQLINVMNKDDPDWWQGEINGVTGLFPSNYVKM

Variants of: B1
Test: abundance fitness (aPCA) (normalised: wild type 0, dead -1); higher = more abundant; growth selection in yeast, the domain comes from the species named
Conditions: Homo sapiens

Variant | abundance fitness
VCQVIAMYDYAANNEDELSFSKGQLINVMNKDDPDAWQGEINGVTGLFPSNYVKM [W36A] | -0.092 ± 0.048
VCQVIAMYDYAANNEDELSFSKGQLINVMNKDDPDTWQGEINGVTGLFPSNYVKM [W36T] | 0.011 ± 0.04
VCQVIAMYDYAANNEDELSFSKGQLINVMNKDDPDHWQGEINGVTGLFPSNYVKM [W36H] | -0.054 ± 0.047
VCQVIAMYDYAANNEDELSFSKGQLINVMNKDDPDVWQGEINGVTGLFPSNYVKM [W36V] | -0.052 ± 0.039
VCQVIAMYDYAANNEDELSFSKGQLINVMNKDDPDMWQGEINGVTGLFPSNYVKM [W36M] | 0.002 ± 0.032
VCQVIAMYDYAANNEDELSFSKGQLINVMNKDDPDPWQGEINGVTGLFPSNYVKM [W36P] | -1.03 ± 0.11
VCQVIAMYDYAANNEDELSFSKGQLINVMNKDDPDNWQGEINGVTGLFPSNYVKM [W36N] | -0.023 ± 0.038
VCQVIAMYDYAANNEDELSFSKGQLINVMNKDDPDCWQGEINGVTGLFPSNYVKM [W36C] | -0.003 ± 0.056
VCQVIAMYDYAANNEDELSFSKGQLINVMNKDDPDLWQGEINGVTGLFPSNYVKM [W36L] | -0.029 ± 0.03
VCQVIAMYDYAANNEDELSFSKGQLINVMNKDDPDIWQGEINGVTGLFPSNYVKM [W36I] | -0.159 ± 0.072
VCQVIAMYDYAANNEDELSFSKGQLINVMNKDDPDKWQGEINGVTGLFPSNYVKM [W36K] | 0.045 ± 0.054
VCQVIAMYDYAANNEDELSFSKGQLINVMNKDDPDSWQGEINGVTGLFPSNYVKM [W36S] | -0.1 ± 0.035
VCQVIAMYDYAANNEDELSFSKGQLINVMNKDDPDWWDGEINGVTGLFPSNYVKM [Q38D] | -0.024 ± 0.058
VCQVIAMYDYAANNEDELSFSKGQLINVMNKDDPDWWHGEINGVTGLFPSNYVKM [Q38H] | 0.04 ± 0.056
VCQVIAMYDYAANNEDELSFSKGQLINVMNKDDPDWWSGEINGVTGLFPSNYVKM [Q38S] | -0.046 ± 0.036
VCQVIAMYDYAANNEDELSFSKGQLINVMNKDDPDWWAGEINGVTGLFPSNYVKM [Q38A] | -0.009 ± 0.039
VCQVIAMYDYAANNEDELSFSKGQLINVMNKDDPDWWWGEINGVTGLFPSNYVKM [Q38W] | -0.276 ± 0.068
VCQVIAMYDYAANNEDELSFSKGQLINVMNKDDPDWWGGEINGVTGLFPSNYVKM [Q38G] | -0.05 ± 0.044
VCQVIAMYDYAANNEDELSFSKGQLINVMNKDDPDWWVGEINGVTGLFPSNYVKM [Q38V] | -0.033 ± 0.039
VCQVIAMYDYAANNEDELSFSKGQLINVMNKDDPDWWCGEINGVTGLFPSNYVKM [Q38C] | -0.027 ± 0.066
VCQVIAMYDYAANNEDELSFSKGQLINVMNKDDPDWWKGEINGVTGLFPSNYVKM [Q38K] | 0.005 ± 0.053
VCQVIAMYDYAANNEDELSFSKGQLINVMNKDDPDWWEGEINGVTGLFPSNYVKM [Q38E] | -0.003 ± 0.055
VCQVIAMYDYAANNEDELSFSKGQLINVMNKDDPDWWYGEINGVTGLFPSNYVKM [Q38Y] | -0.012 ± 0.072
VCQVIAMYDYAANNEDELSFSKGQLINVMNKDDPDWWPGEINGVTGLFPSNYVKM [Q38P] | -0.654 ± 0.061

Variant | abundance fitness
VCQVIAMYDYAANNEDELSFSKGQLINVMNKDDPDWWIGEINGVTGLFPSNYVKM [Q38I] | 0.105 ± 0.06
VCQVIAMYDYAANNEDELSFSKGQLINVMNKDDPDWWTGEINGVTGLFPSNYVKM [Q38T] | -0.038 ± 0.034
VCQVIAMYDYAANNEDELSFSKGQLINVMNKDDPDWWFGEINGVTGLFPSNYVKM [Q38F] | -0.059 ± 0.063
VCQVIAMYDYAANNEDELSFSKGQLINVMNKDDPDWWLGEINGVTGLFPSNYVKM [Q38L] | -0.072 ± 0.029
VCQVIAMYDYAANNEDELSFSKGQLINVMNKDDPDWWRGEINGVTGLFPSNYVKM [Q38R] | -0.029 ± 0.031
VCQVIAMYDYAANNEDELSFSKGQLINVMNKDDPDWWMGEINGVTGLFPSNYVKM [Q38M] | -0.074 ± 0.041
VCQVIAMYDYAANNEDELSFSKGQLINVMNKDDPDWWNGEINGVTGLFPSNYVKM [Q38N] | -0.248 ± 0.073
VCQVIAMYDYAANNEDELSFSKGQLINVMNKDDPDWWQTEINGVTGLFPSNYVKM [G39T] | -0.89 ± 0.11
VCQVIAMYDYAANNEDELSFSKGQLINVMNKDDPDWWQCEINGVTGLFPSNYVKM [G39C] | -0.995 ± 0.12
VCQVIAMYDYAANNEDELSFSKGQLINVMNKDDPDWWQAEINGVTGLFPSNYVKM [G39A] | -0.699 ± 0.06
VCQVIAMYDYAANNEDELSFSKGQLINVMNKDDPDWWQWEINGVTGLFPSNYVKM [G39W] | -1.18 ± 0.22
VCQVIAMYDYAANNEDELSFSKGQLINVMNKDDPDWWQREINGVTGLFPSNYVKM [G39R] | -1.06 ± 0.073
VCQVIAMYDYAANNEDELSFSKGQLINVMNKDDPDWWQEEINGVTGLFPSNYVKM [G39E] | -0.913 ± 0.098
VCQVIAMYDYAANNEDELSFSKGQLINVMNKDDPDWWQHEINGVTGLFPSNYVKM [G39H] | -0.896 ± 0.3
VCQVIAMYDYAANNEDELSFSKGQLINVMNKDDPDWWQQEINGVTGLFPSNYVKM [G39Q] | -0.992 ± 0.21
VCQVIAMYDYAANNEDELSFSKGQLINVMNKDDPDWWQDEINGVTGLFPSNYVKM [G39D] | -0.726 ± 0.099
VCQVIAMYDYAANNEDELSFSKGQLINVMNKDDPDWWQFEINGVTGLFPSNYVKM [G39F] | -0.854 ± 0.29
VCQVIAMYDYAANNEDELSFSKGQLINVMNKDDPDWWQIEINGVTGLFPSNYVKM [G39I] | -0.942 ± 0.14
VCQVIAMYDYAANNEDELSFSKGQLINVMNKDDPDWWQVEINGVTGLFPSNYVKM [G39V] | -1.02 ± 0.079
VCQVIAMYDYAANNEDELSFSKGQLINVMNKDDPDWWQPEINGVTGLFPSNYVKM [G39P] | -0.864 ± 0.12
VCQVIAMYDYAANNEDELSFSKGQLINVMNKDDPDWWQKEINGVTGLFPSNYVKM [G39K] | -0.999 ± 0.091
VCQVIAMYDYAANNEDELSFSKGQLINVMNKDDPDWWQNEINGVTGLFPSNYVKM [G39N] | -0.831 ± 0.18
VCQVIAMYDYAANNEDELSFSKGQLINVMNKDDPDWWQSEINGVTGLFPSNYVKM [G39S] | -0.937 ± 0.12
VCQVIAMYDYAANNEDELSFSKGQLINVMNKDDPDWWQYEINGVTGLFPSNYVKM [G39Y] | -0.878 ± 0.24
